Reference: patent US20260201068A1 (UNIVERSIT DE GEN VE, published 2026)
Substitutions are numbered along the chain they refer to.

B1: anti-PTPRZ1 scFv RRB473 conjugated to a rabbit Fc (Fc fusion)
scFv: MAQVQLVESGGGVVQPGRSLRLSCAASGFTFSSYAMHWVRQAPGKGLEWVAVISYDGSNKYYADSVKGRFTISRDNSKNTLYLQMNSLRAEDTAVYYCARDQDDSSDAFDIWGQGTLVTVSSGGGGSGGGGSGGGGSTQSVLTQPPSVSAAPGQKVTISCSGSSSNIGNNYVSWYQQLPGTAPKLLIYDNNKRPSGIPDRFSGSKSGTSATLGITGLQTGDEADYYCGTYDYIATRAVFGGGTKLTVLGAA
notes: scFv conjugated to a rabbit Fc for flow cytometry; also called scFv 473; not shown: rabbit Fc
B2: anti-PTPRZ1 scFv RRB476 conjugated to a rabbit Fc (Fc fusion)
scFv: B1 scFv with Y230W, I233K, A234V, T235S, A237L
notes: scFv conjugated to a rabbit Fc for flow cytometry; also called scFv 476; not shown: rabbit Fc
B3: anti-PTPRZ1 471_28z chimeric antigen receptor (on RNA CAR T cells) (protein, part only; not given: CD3zeta signalling domain, part only)
chain, part: MAEVQLVESGGGLVQPGGSLRLSCAASGFTFSSYSMNWVRQAPGKGLEWVSYISSSSSTIYYADSVKGRFTISRDNAKNSLYLQMNSLRAEDTAVYYCARPGYGDFPGAFDIWGQGTLVTVSSGGGGSGGGGSGGGGSTQSALTQPASVSGSPGQSITISCTGTSSDVGGYNYVSWYQQHPGKAPKLMIYEVSNRPSGVSNRFSGSKSGNTASLTISGLQAEDEADYYCSSYDWATYGSVFGGGTKLTVLGAAESKYGPPCPPCPFWVLVVVGGVLACYSLLVTVAFIIFWVRSKRSRGGHSDYMNMTPRRPGPTRKHYQPYAPPRDFAAYRS
B4: anti-PTPRZ1 scFv RRB469 conjugated to a rabbit Fc (Fc fusion)
scFv: MAQVQLVESGGGVVQPGRSLRLSCAASGFTFSSYAMHWVRQAPGKGLEWVAVISYDGSNKYYADSVKGRFTISRDNSKNTLYLQMNSLRAEDTAVYYCARGSGYSYGPGYDAFDIWGQGTLVTVSSGGGGSGGGGSGGGGSTNFMLTQPHSVSESPGKTVTISCTRSSGSIASNYVQWYQQRPGSSPTTVIYEDNQRPSGVPDRFSGSIDSSSNSASLTISGLKTEDEADYYCQSWDPVFGVFGGGTKLTVLGAA
notes: Flow cytometry was done with the scFvs conjugated to a rabbit Fc, detected with anti-rabbit IgG AlexaFluo488; also called scFv 469; not shown: rabbit Fc
B5: anti-PTPRZ1 scFv RRB471 conjugated to a rabbit Fc (Fc fusion)
scFv: MAEVQLVESGGGLVQPGGSLRLSCAASGFTFSSYSMNWVRQAPGKGLEWVSYISSSSSTIYYADSVKGRFTISRDNAKNSLYLQMNSLRAEDTAVYYCARPGYGDFPGAFDIWGQGTLVTVSSGGGGSGGGGSGGGGSTQSALTQPASVSGSPGQSITISCTGTSSDVGGYNYVSWYQQHPGKAPKLMIYEVSNRPSGVSNRFSGSKSGNTASLTISGLQAEDEADYYCSSYDWATYGSVFGGGTKLTVLGAA
notes: scFv conjugated to a rabbit Fc for flow cytometry; not shown: rabbit Fc

How the values were obtained:
[1] = target: T1, human PTPRZ1 extracellular portion (domains 1 plus 2) knocked in and shown on Ge518_PTPRZ1-KI cells (human, UniProt P23471 25-413, limits assumed); test: flow cytometry on Ge518_PTPRZ1-KI cells, scFv conjugated to rabbit Fc, anti-rabbit IgG AlexaFluo488
T1 construct: domain: extracellular portion (domains 1 plus 2); parental Ge518 has low PTPRZ1 expression; also called receptor-type tyrosine-protein phosphatase zeta
T1 sequence (P23471 25-413 limits assumed): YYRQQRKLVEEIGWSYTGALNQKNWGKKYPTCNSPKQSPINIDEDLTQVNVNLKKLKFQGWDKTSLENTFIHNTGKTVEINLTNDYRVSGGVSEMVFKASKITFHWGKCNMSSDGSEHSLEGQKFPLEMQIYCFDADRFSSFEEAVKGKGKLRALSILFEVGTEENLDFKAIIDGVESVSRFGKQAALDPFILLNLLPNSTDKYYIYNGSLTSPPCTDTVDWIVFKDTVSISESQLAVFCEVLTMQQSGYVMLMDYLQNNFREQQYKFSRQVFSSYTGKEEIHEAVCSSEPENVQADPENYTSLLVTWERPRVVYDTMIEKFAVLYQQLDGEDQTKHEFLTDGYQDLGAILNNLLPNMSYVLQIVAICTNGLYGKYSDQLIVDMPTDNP
Source text: The GBM cell line Ge518, obtained in our lab from a patient tumor resection, was used as a tumor model to evaluate CAR T cell efficacy. As PTPRZ1 expression was low in these cells, the antigen was overexpressed by introducing (knock-in) an extracellular portion (domains 1 plus 2) of the human PTPRZ1 molecule under the EF1a promoter, using a 3rd generation LV vector with puromycin selection.

[2] = target: human PTPRZ1 extracellular portion (domains 1 plus 2) knocked in and shown on Ge518_PTPRZ1-KI cells (human) (UniProt P23471); test: cell-based or functional assay
human PTPRZ1 extracellular portion (domains 1 plus 2) knocked in and shown on Ge518_PTPRZ1-KI cells (human), sequence (P23471 25-413 limits assumed): as above

Binder	level of recognition (percent, flow cytometry) [1]	killing of Ge518 PTPRZ1-KI target cells by CAR T cells, E:T 3:1 [2]
B1	≥ 80%	
B2	≥ 80%	
B3		80%
B4	≥ 80%	
B5	≥ 80%	
